Source: patent publication US20180155413A1 (AstraZeneca / MedImmune, published 2018)
Like-named read-outs stand apart in the source and are kept apart here.

Tests used:
Assay in all cases: cell-based or functional assay
[1] = target: HA of B/Malaysia/2506/2004 (victoria) (influenza B virus)
[2] = target: HA of B/Sichuan/379/99 (yamagata) (influenza B virus)
[3] = target: HA of A/Wilson Smith N/33 (H1N1) (influenza A virus, UniProt P03454 18-565)
[4] = target: HA of A/Beijing/262/95 (H1N1) (influenza A virus)
[5] = target: HA of A/California/07/2009 (H1N1) (influenza A virus)
[6] = target: HA of A/Hong Kong/8/68 (H3N2) (influenza A virus)
[7] = target: HA of A/Victoria/3/75 (H3N2) (influenza A virus)
[8] = target: HA of A/Shan dong/9/93 (H3N2) (influenza A virus)
[9] = target: HA of ca A/Panama/2007/99 (H3N2) (influenza A virus)
[10] = target: HA of ca B/Beijing/243/97 (victoria) (influenza B virus)
[11] = target: HA of B/Hong Kong/330/2001 (victoria) (influenza B virus)
[12] = target: HA of B/Malaysia/2506/2004 (victoria) (influenza B virus); remark: listed apart in the source
[13] = target: HA of B/Ohio/1/2005 (victoria) (influenza B virus)
[14] = target: HA of B/Sichuan/379/99 (yamagata) (influenza B virus); remark: listed apart in the source
[15] = target: HA of B/Florida/4/2006 (yamagata) (influenza B virus)
HA of B/Lee/40 [16] = target: T1, HA of B/Lee/40 (influenza B virus, UniProt P03460 16-584)
[17] = target: HA of ca B/Ann Arbor/1/66 (influenza B virus)
HA of B/Hong Kong/5/72 [18] = target: HA of B/Hong Kong/5/72 (influenza B virus)
[19] = target: HA of ca B/Beijing/243/97 (victoria) (influenza B virus); remark: listed apart in the source
[20] = target: HA of B/Hong Kong/330/2001 (victoria) (influenza B virus); remark: listed apart in the source
[21] = target: HA of B/Malaysia/2506/2004 (victoria) (influenza B virus); remark: listed apart in the source
[22] = target: HA of B/Ohio/1/2005 (victoria) (influenza B virus); remark: listed apart in the source
[23] = target: HA of ca B/Brisbane/60/2008 (victoria) (influenza B virus)
[24] = target: HA of B/Nevada/3/2011 (victoria) (influenza B virus)
[25] = target: HA of B/New Jersey/01/2012 (victoria) (influenza B virus)
[26] = target: HA of B/Texas/2/2013 (victoria) (influenza B virus)
[27] = target: HA of B/Wisconsin/5/2013 (victoria) (influenza B virus)
[28] = target: HA of B/Yamagata/16/88 (yamagata) (influenza B virus)
[29] = target: HA of ca B/Georgia/02/98 (yamagata) (influenza B virus)
[30] = target: HA of B/Sichuan/379/99 (yamagata) (influenza B virus); remark: listed apart in the source
[31] = target: HA of ca B/Victoria/504/2000 (yamagata) (influenza B virus)
[32] = target: HA of B/Florida/4/2006 (yamagata) (influenza B virus); remark: listed apart in the source
[33] = target: HA of B/Wisconsin/1/2010 (yamagata) (influenza B virus)
[34] = target: HA of B/Arizona/8/2013 (yamagata) (influenza B virus)
[35] = target: HA of B/Phuket/3073/2013 (yamagata) (influenza B virus)
HA of B/Lee/40 [36] = target: T1, HA of B/Lee/40; remark: listed apart in the source
[37] = target: HA of ca B/Ann Arbor/1/66 (influenza B virus); remark: listed apart in the source
HA of B/Hong Kong/5/72 [38] = target: HA of B/Hong Kong/5/72 (influenza B virus); remark: listed apart in the source
[39] = target: HA of ca B/Beijing/243/97 (victoria) (influenza B virus); remark: listed apart in the source
[40] = target: HA of B/Hong Kong/330/2001 (victoria) (influenza B virus); remark: listed apart in the source
[41] = target: HA of B/Malaysia/2506/2004 (victoria) (influenza B virus); remark: listed apart in the source
[42] = target: HA of B/Ohio/1/2005 (victoria) (influenza B virus); remark: listed apart in the source
[43] = target: HA of ca B/Brisbane/60/2008 (victoria) (influenza B virus); remark: listed apart in the source
[44] = target: HA of B/Yamagata/16/88 (yamagata) (influenza B virus); remark: listed apart in the source
[45] = target: HA of ca B/Ann Arbor/2/94 (yamagata) (influenza B virus)
[46] = target: HA of ca B/Georgia/02/98 (yamagata) (influenza B virus); remark: listed apart in the source
[47] = target: HA of B/Yamanashi/166/98 (yamagata) (influenza B virus)
[48] = target: HA of ca B/Johannesburg/5/99 (yamagata) (influenza B virus)
[49] = target: HA of B/Sichuan/379/99 (yamagata) (influenza B virus); remark: listed apart in the source
[50] = target: HA of ca B/Victoria/504/2000 (yamagata) (influenza B virus); remark: listed apart in the source
[51] = target: HA of B/Shanghai/361/02 (yamagata) (influenza B virus)
[52] = target: HA of B/Florida/4/2006 (yamagata) (influenza B virus); remark: listed apart in the source

T1 sequence (P03460 16-584 limits assumed): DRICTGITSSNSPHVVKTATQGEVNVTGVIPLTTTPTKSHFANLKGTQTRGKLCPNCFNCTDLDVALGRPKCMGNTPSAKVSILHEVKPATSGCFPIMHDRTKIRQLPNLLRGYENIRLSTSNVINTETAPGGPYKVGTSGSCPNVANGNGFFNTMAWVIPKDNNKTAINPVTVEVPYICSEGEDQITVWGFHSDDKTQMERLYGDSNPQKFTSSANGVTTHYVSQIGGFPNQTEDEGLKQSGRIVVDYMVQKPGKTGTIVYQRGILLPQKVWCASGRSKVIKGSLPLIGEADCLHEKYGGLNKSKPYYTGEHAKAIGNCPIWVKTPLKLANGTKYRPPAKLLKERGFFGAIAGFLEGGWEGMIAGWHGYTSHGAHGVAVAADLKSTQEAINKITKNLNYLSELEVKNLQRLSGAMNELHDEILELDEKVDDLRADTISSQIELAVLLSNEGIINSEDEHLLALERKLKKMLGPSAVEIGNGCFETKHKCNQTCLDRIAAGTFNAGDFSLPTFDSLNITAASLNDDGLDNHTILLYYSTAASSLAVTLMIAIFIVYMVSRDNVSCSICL
Sequence of HA of A/Wilson Smith N/33 (H1N1) (P03454 18-565 limits assumed): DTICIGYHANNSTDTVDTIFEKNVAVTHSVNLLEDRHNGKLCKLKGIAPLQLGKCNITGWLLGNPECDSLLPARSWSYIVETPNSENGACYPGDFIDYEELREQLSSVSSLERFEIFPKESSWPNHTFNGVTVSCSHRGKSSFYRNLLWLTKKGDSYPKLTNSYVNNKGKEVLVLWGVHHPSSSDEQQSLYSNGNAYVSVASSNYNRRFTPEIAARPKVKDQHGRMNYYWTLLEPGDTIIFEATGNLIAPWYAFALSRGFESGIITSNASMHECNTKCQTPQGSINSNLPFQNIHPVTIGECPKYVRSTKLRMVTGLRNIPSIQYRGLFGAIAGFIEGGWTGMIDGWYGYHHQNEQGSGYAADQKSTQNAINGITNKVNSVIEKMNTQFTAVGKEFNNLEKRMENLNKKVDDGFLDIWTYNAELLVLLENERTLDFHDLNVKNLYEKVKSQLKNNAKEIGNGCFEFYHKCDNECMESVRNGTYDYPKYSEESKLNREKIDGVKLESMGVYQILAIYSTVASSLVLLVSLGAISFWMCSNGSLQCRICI

B1: FBC39 IgG (antibody, V domains shown)
VH: EVQLVVSGGGLVKPGGSLRLSCAASGLSFLNAWMSWVRQAPGKGLEWVGRIKSNTDGGTTDYAAPVKGRFSISRDDSKNMLFLHMSSLRTEDTAVYYCATDGPYSDDFRSGYAARYRYFGMDVWGQGTTVTVSS
VL: DIQMTQSPSSVSASVGDRVTITCRASQDISTWLAWYQQKPGKAPKLLIYAASSLQSGVPSRFSGSGSGTDFTLTISSLQPEDFATYFCQQANSFPPTFGQGTKLEIK
[1]
  ADCC: NK cell killing of infected A549 cells (LDH release), IC50: 1.45 nM
[2]
  ADCC: NK cell killing of infected A549 cells (LDH release), IC50: 0.85 nM
[3]
  Neutralization (IC50): > 1000 nM
[4]
  Neutralization (IC50): > 1000 nM
[5]
  Neutralization (IC50): > 1000 nM
[6]
  Neutralization (IC50): > 1000 nM
[7]
  Neutralization (IC50): > 1000 nM
[8]
  Neutralization (IC50): > 1000 nM
[9]
  Neutralization (IC50): > 1000 nM
[10]
  Neutralization (IC50): 0.4 nM
[11]
  Neutralization (IC50): 1 nM
[12]
  Neutralization (IC50): 1 nM
[13]
  Neutralization (IC50): 0.6 nM
[14]
  Neutralization (IC50): 0.2 nM
[15]
  Neutralization (IC50): 0.4 nM
HA of B/Lee/40 [16]
  Neutralization (IC50): 0.1 nM
[17]
  Neutralization (IC50): 0.6 nM
HA of B/Hong Kong/5/72 [18]
  Neutralization (IC50): 0.4 nM
[19]
  Neutralization (IC50): 0.9 nM
[20]
  Neutralization (IC50): 1.8 nM
[21]
  Neutralization (IC50): 1.2 nM
[22]
  Neutralization (IC50): 0.5 nM
[23]
  Neutralization (IC50): 1.5 nM
[24]
  Neutralization (IC50): 1.2 nM
[25]
  Neutralization (IC50): 0.7 nM
[26]
  Neutralization (IC50): 0.4 nM
[27]
  Neutralization (IC50): 0.5 nM
[28]
  Neutralization (IC50): 0.1 nM
[29]
  Neutralization (IC50): 0.1 nM
[30]
  Neutralization (IC50): 0.3 nM
[31]
  Neutralization (IC50): 0.2 nM
[32]
  Neutralization (IC50): 0.2 nM
[33]
  Neutralization (IC50): 0.1 nM
[34]
  Neutralization (IC50): 0.1 nM
[35]
  Neutralization (IC50): 0.2 nM
HA of B/Lee/40 [36]
  Hemagglutination Inhibition Titer: 5 nM
[37]
  Hemagglutination Inhibition Titer: 6 nM
HA of B/Hong Kong/5/72 [38]
  Hemagglutination Inhibition Titer: 8 nM
[39]
  Hemagglutination Inhibition Titer: 14 nM
[40]
  Hemagglutination Inhibition Titer: 16 nM
[41]
  Hemagglutination Inhibition Titer: 20 nM
[42]
  Hemagglutination Inhibition Titer: 24 nM
[43]
  Hemagglutination Inhibition Titer: 20 nM
[44]
  Hemagglutination Inhibition Titer: 11 nM
[45]
  Hemagglutination Inhibition Titer: 6 nM
[46]
  Hemagglutination Inhibition Titer: 16 nM
[47]
  Hemagglutination Inhibition Titer: 13 nM
[48]
  Hemagglutination Inhibition Titer: 18 nM
[49]
  Hemagglutination Inhibition Titer: 10 nM
[50]
  Hemagglutination Inhibition Titer: 16 nM
[51]
  Hemagglutination Inhibition Titer: 16 nM
[52]
  Hemagglutination Inhibition Titer: 7 nM
